US20220305136A1, “ANTI-CTLA4 CONJUGATES” (Ascendis Pharma Oncology Division A/S, priority 2019, published 2022)

Experiment: Plasma pharmacokinetics of HHC^MET in Wistar rats
Type: in vivo
Settings: n=3
Protocol: This study was performed in order to investigate the plasma pharmacokinetics of HHC^MET in Wistar rats following subcutaneous and intramuscular administration of transient HHC^MET-linker hydrogel prodrug 32 or following subcutaneous or intravenous administration of free HHC^MET. Animals (n=3 per group) received either a single SC injection in the neck region or a single IM injection in the thigh musculature of a formulation of 32 (10 mg/kg HHC^MET equivalents) or a single SC injection in the neck region or IV injection in the tail vein of an HHC^MET formulation (10 mg/kg HHCMet). At selected time points, 200 μL blood were collected in L^1-Heparin tubes and processed to plasma by centrifugation at 3,000 g for 10 minutes at 4° C.
HHC^MET concentrations in rat plasma were determined with an in-house developed sandwich ELISA setup. For capturing HHC^MET, a human CTLA-4 (AA Ala37-Ser160)—Fc Tag fusion protein (Supplier AcroBiosystem, Newark, Del.; USA, catalog no. CT4-H5255) was coated to the ELISA plate wells and read-out was performed via a rabbit anti-camelid VHH antibody conjugated with horseradish peroxidase (supplier Genscript, Piscataway, N.J., USA, catalog no. A01861-200).
Calibration standards of HHC^MET in blank plasma were prepared as follows: thawed L^1-Heparin Wistar rat plasma was homogenized. The free HHC^MET formulation was spiked into blank plasma at concentrations between 96.0 ng/mL and 3.00 ng/mL with additional higher and lower anchor points. These solutions were used for the generation of a calibration curve. Calibration curves were analyzed via a 4-parameter logarithmic fit and 1/Y weighted. Calibration curves were confirmed via separately prepared quality control standards at 10, 40 and 80 ng/mL.

B1: HHC^MET: custom made protein of SEQ ID NO:2, expressed from E. coli; captured by human CTLA-4 and detected with anti-camelid VHH antibody in ELISA (protein)
chain: EVQLVESGGGLVQAGGSLRLSCAASGGTFSFYGMGWFRQAPGKEQEFVADIRTSAGRTYYADSVKGRFTISRDNAKNTVYLQMNSLKPEDTAVYYCAAEMSGISGWDYWGQGTQVTVSSGGGGSGGGSEVQLVESGGGLVQAGGSLRLSCAASGGTFSFYGMGWFRQAPGKEQEFVADIRTSAGRTYYADSVKGRFTISRDNAKNTVYLQMNSLKPEDTAVYYCAAEMSGISGWDYWGQGTQVTVSS
modifications: nanobody
notes: captured by human CTLA-4 and detected with anti-camelid VHH antibody in ELISA
For B1, the “mean HHC^MET concentration” value (0.25 h, 10 mg/kg HHC^MET (equivalents), subcutaneous) was 2540 ng/mL, the “mean HHC^MET concentration” value (0.25 h, 10 mg/kg intravenous) was 17400 ng/mL and the “mean HHC^MET concentration” value (1 h, 10 mg/kg HHC^MET (equivalents), subcutaneous) was 5090 ng/mL. For the same molecule, the “mean HHC^MET concentration” value (1 h, 10 mg/kg intravenous) was 3530 ng/mL, the “mean HHC^MET concentration” value (4 h, 10 mg/kg HHC^MET (equivalents), subcutaneous) was 2280 ng/mL and the “mean HHC^MET concentration” value (4 h, 10 mg/kg intravenous) was 1720 ng/mL. For the same molecule, the “mean HHC^MET concentration” value (24 h, 10 mg/kg HHC^MET (equivalents), subcutaneous, LLOQ 3.00 ng/mL) was 2.60 ng/mL, the “mean HHC^MET concentration” value (24 h, 10 mg/kg intravenous) was 8.27 ng/mL and the “mean HHC^MET concentration” value (32 h, 10 mg/kg HHC^MET (equivalents), subcutaneous, LLOQ 3.00 ng/mL) was “<LLOQ”. The “mean HHC^MET concentration” value (32 h, 10 mg/kg intravenous, LLOQ 3.00 ng/mL) was “<LLOQ”, the “mean HHC^MET concentration” value (48 h, 10 mg/kg HHC^MET (equivalents), subcutaneous, LLOQ 3.00 ng/mL) was “<LLOQ” and the “mean HHC^MET concentration” value (48 h, 10 mg/kg intravenous, LLOQ 3.00 ng/mL) was “<LLOQ”. For the same molecule, the “mean HHC^MET concentration” value (72 h, 10 mg/kg HHC^MET (equivalents), subcutaneous, LLOQ 3.00 ng/mL) was 2.07 ng/mL, the “mean HHC^MET concentration” value (72 h, 10 mg/kg intravenous, LLOQ 3.00 ng/mL) was 1.15 ng/mL and the “mean HHC^MET concentration” value (96 h, 10 mg/kg HHC^MET (equivalents), subcutaneous, LLOQ 3.00 ng/mL) was “<LLOQ”. The “mean HHC^MET concentration” value (96 h, 10 mg/kg intravenous, LLOQ 3.00 ng/mL) was “<LLOQ”, the “mean HHC^MET concentration” value (168 h, 10 mg/kg HHC^MET (equivalents), subcutaneous, LLOQ 3.00 ng/mL) was “<LLOQ” and the “mean HHC^MET concentration” value (168 h, 10 mg/kg intravenous, LLOQ 3.00 ng/mL) was “<LLOQ”.
